# Source: patent US10221215 (NEW YORK UNIVERSITY, dated 2019)
# Positions of bridges follow the written chain, without caps; N, C: chain ends. Non-standard residues stand in square brackets, D forms with d. No end group written: not given here. Aib = CC(C)(N)C(=O)O
# B1: HBS 7^mut (peptide)
# peptide: AEGIYRLELLKAEAAA
# modifications: staple (positions not given here); also: HBS: N-terminal main-chain i,i+4 H-bond replaced by C-C bond (ring-closing metathesis), residues 1-4
# B2: HBS 7 (peptide)
# peptide: FEGIYRLELLKAEEAN
# modifications: staple (positions not given here); also: HBS: N-terminal main-chain i,i+4 H-bond replaced by C-C bond (ring-closing metathesis), residues 1-4
# B3: HBS 15^ (peptide)
# peptide: FEAIYRLEKLKAEEAN
# modifications: staple (positions not given here); lactam 9-13; also: HBS: N-terminal main-chain i,i+4 H-bond replaced by C-C bond (ring-closing metathesis), residues 1-4
# B4: HBS 12 (peptide)
# peptide: FEGLLRLWLRKAEEAN
# modifications: staple (positions not given here); also: HBS: N-terminal main-chain i,i+4 H-bond replaced by C-C bond (ring-closing metathesis), residues 1-4
# B5: HBS 13 (peptide)
# peptide: FEAIYRLELLKAEEAN
# modifications: staple (positions not given here); also: HBS: N-terminal main-chain i,i+4 H-bond replaced by C-C bond (ring-closing metathesis), residues 1-4
# B6: HBS 10 (peptide)
# peptide: FEGLLRLWLRK[Aib]EE[Aib]N
# modifications: staple (positions not given here); not fully specified (C-terminus, bridges); also: hydrogen bond surrogate: N-terminal main-chain i,i+4 H-bond replaced by C-C bond
# B7: HBS 16 (peptide)
# peptide: FEGIYRLEKLKAEEANRR
# modifications: staple (positions not given here); also: HBS: N-terminal main-chain i,i+4 H-bond replaced by C-C bond (ring-closing metathesis), residues 1-4
# B8: HBS 8 (peptide)
# peptide: FEGIYRLELLK
# modifications: staple (positions not given here); also: HBS: N-terminal main-chain i,i+4 H-bond replaced by C-C bond (ring-closing metathesis), residues 1-4
# B9: HBS 9 (peptide)
# peptide: FEGLLRLWLRK[Aib]EEAN
# modifications: staple (positions not given here); not fully specified (C-terminus, bridges); also: hydrogen bond surrogate: N-terminal main-chain i,i+4 H-bond replaced by C-C bond
# B10: HBS 11 (peptide)
# peptide: FEGIYRLELLK[Aib]EE[Aib]N
# modifications: staple (positions not given here); not fully specified (C-terminus, bridges); also: hydrogen bond surrogate: N-terminal main-chain i,i+4 H-bond replaced by C-C bond
# B11: HBS 6 (peptide)
# peptide: FEGIYRTELLKAEEAN
# modifications: staple (positions not given here); also: HBS: N-terminal main-chain i,i+4 H-bond replaced by C-C bond (ring-closing metathesis), residues 1-4
# B12: HBS 1 (peptide)
# peptide: FEGIYRTDILRTEEGN
# modifications: staple (positions not given here); also: HBS: N-terminal main-chain i,i+4 H-bond replaced by C-C bond (ring-closing metathesis), residues 1-4
# Target: Ras (residues 1-166 of human Ha-Ras) (human, UniProt P01112 1-166)
# Experiment: cell-based or functional assay
row,"% Inhibition (Sos-mediated nucleotide exchange from Ras, mantGDP) [%]",Binder
1,40,FEAIYRLELLKAEEAN [Peptide 13]
2,15,B1
3,13,FEGIYRTDILRTEEGN [Peptide 1]
4,< 10,FGEGIYRTDILRTEEGN [Peptide 2]
5,20,FEGIYRTELLKAEEAN [Peptide 6]
6,64,B2
7,< 10,B3
8,< 10,AEGIYRTDILRTEEGN [Peptide 3]
9,55,B4
10,50,FEGLLRLWLRK[Aib]EE[Aib]N [Peptide 10]
11,50,B5
12,60,B6
13,50,FEAIYRLEKLKAEEAN [Peptide 15]
14,50,FEGLLRLWLRKAEEAN [Peptide 12]
15,56,B7
16,< 5,B8
17,30,FEGIYRLELLK[Aib]EE[Aib]N [Peptide 11]
18,35,B9
19,20,B10
20,< 10,FEGIYRTDILR [Peptide 5]
21,< 5,FEGIYRLELLK [Peptide 8]
22,40,B11
23,37,FEGIYRLELLKAEEAN [Peptide 7]
24,< 10,AEGIYRADILRTEEGN [Peptide 4]
25,11,B12
